The results in this text go back to patent US20030113828A1, “Compositions and methods for modulating Syk function” (priority 2001, published 2003).

For the assay, the target named is T1, integrin β3 cytoplasmic tail (Homo sapiens, UniProt P05106).
T1 construct: made in house
T1 sequence (P05106 742-788 limits assumed): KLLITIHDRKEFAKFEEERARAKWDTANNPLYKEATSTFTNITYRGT
The experiment in a line: Affinity chromatography/direct binding of kinase fragments to integrin tail. To be noted: recombinant fragments, direct binding assay. As for the experimental part: Following incubation, beads were washed and bound protein was analyzed by immunoblotting.
For direct binding assays, model peptides (1 mg) were dissolved in 1 ml buffer containing 20 mM Tris (pH 7.9), 500 mM NaCl, and 6 M urea. To this, 50 ul packed His-Bind® Resin (Novagen, Madison, Wis.) was added and the mixture was rotated for 1 hour at room temperature. Immobilized peptides were washed 5× in above buffer without urea, and resuspended in 500 μl buffer containing 20 mM PIPES pH 6.8, 50 mM NaCl, 3 mM MgCl2, 150 mM sucrose, 50 mM NaF, 40 mM Na4P2O7*10H2O (buffer A) supplemented with 0.1% TritonX-100 and 3 mM MgCl2. Purified GST-fusion proteins were added to 0.5 ml buffer A supplemented with 0.1% TritonX-100 and 3 mM MgCl2. Five μl of total packed resin loaded with various integrin cytoplasmic domain model proteins was added to the GST-fusion protein. The mixture was incubated for 40 minutes at room temperature with continuous rotation. The beads were then washed five times in buffer A with 0.1% TritonX-100 and 3 mM MgCl2. Bound proteins were eluted by boiling in reducing sample buffer, fractionated by SDS PAGE, and immuno-blotted.

B1: Zap-70(1-132): Zap-70 truncation lacking the C-terminal half of interdomain A (protein)
chain: MPDPAAHLPFFYGSISRAEAEEHLKLAGMADGLFLLRQCLRSLGGYVLSLVHDVRFHHFPIERQLNGTYAIAGGKAHCGPAELCEFYSRDPDGLPCNLRKPCNRPSGLEPQPGVFDCLRDAMVRDYVRQTWK
Take B1: the “binding to the β3 tail” value was “decrease in binding”.

B2: Zap-70(1-337): Zap-70 fragment containing both SH2 and interdomains A and B (protein)
chain: MPDPAAHLPFFYGSISRAEAEEHLKLAGMADGLFLLRQCLRSLGGYVLSLVHDVRFHHFPIERQLNGTYAIAGGKAHCGPAELCEFYSRDPDGLPCNLRKPCNRPSGLEPQPGVFDCLRDAMVRDYVRQTWKLEGEALEQAIISQAPQVEKLIATTAHERMPWYHSSLTREEAERKLYSGAQTDGKFLLRPRKEQGTYALSLIYGKTVYHYLISQDKAGKYCIPEGTKFDTLWQLVEYLKLKADGLIYCLKEACPNSSASNASGAAAPTLPAHPSTLTHPQRRIDTLNSDGYTPEPARITSPDKPRPMPMDTSVYESPYSDPEELKDKKLFLKRDNL
modifications: left off: a dimerising Fc or GST
notes: Zap-70 fragment containing both SH2 and interdomains A and B
Turning to B2, the “binding to the β3 tail” value is given as “bound”.
